One molecule from patent publication US7838495B2, “Compositions and methods of use of EPB1, and ErbB3 binding protein” (University of Maryland, Baltimore, priority 2007, dated 2010) can be followed below.

The test system of assay [1] is C81 cells. Put plainly: Sensitivity of C81 transfectants to 4 Gy gamma radiation. It is filed as cell-based, human. Particulars: C81 EPB1 transfectants, 72 h after exposure (vector less than 10%). The source says:
Restoration or increase of EPB1 expression can sensitize the androgen independent prostate cancer C81 cells to radiation. Radiotherapy is another important treatment for locally and regionally advanced prostate cancer. However, resistance of prostate cancer cells to radiation limits its efficacy and dose escalation is obviously not the solution to this common phenomenon. Bcl-2 overexpression may be the same critical molecule underlying the resistance to radiotherapy as to the chemotherapy in prostate cancer. 4 Gy gamma radiation killed 100% of EPB1 transfectants while less than 10% of C81 vector transfectants were dead in 72 h after exposure to the same 4 Gy gamma irradiation. […] Without being bound by theory, it is contemplated that the increase in sensitivity to radiation might be due to the decreased levels of Bcl-2 in EPB1 transfectants given the importance of Bcl-2 function in resistance to radiation.

The test system of assay [2] is MCF-7 cells. Put plainly: Western blot of ErbB2 and ErbB3 in MCF-7 EBP1 transfectants. The conditions noted are these: MCF-7-EBP1 transfectants vs vector controls. The class given is cell-based, human. The procedure:
FIG. 10A-C. Effect of ectopic expression of EBP1 on ErbB3 or ErbB2 protein levels. (A and B) Lysates of logarithmically growing MCF-7 vector control cells (CMV) or EBP1 transfected cells (Ebp1) or (C) AU565 cells were blotted with antibodies for ErbB3 or ErbB2 and actin as indicated. Data are representative of three experiments.
2.5. Western blot analysis. Total cell extracts were prepared by direct lysis of cells with lysis buffer [50 mM Tris-HCl (pH 7.4), 1 mM EDTA, 250 mM NaCl, 1% Triton X-100, 0.5 mM DTT, and 1× Complete™ protease inhibitor]. Protein concentrations were measured using a detergent compatible kit (Bio-Rad). Proteins (30 lg per well) were resolved by SDS-PAGE, transferred to PVDF membranes, and immunoblotted as described. […] Images were quantified using IMAGE-J software (NIH). […] Relative cell numbers were determined 4 days later using a Promega Proliferation Reagent as per manufacturer's instructions with absorbance being read at 490 nm using a Dynex plate reader. […] Data were analyzed using a two-tailed Students t-test and a p <0.05 was deemed statistically significant. […]

B1: EBP1: ErbB3 binding protein (SEQ ID NO: 2), AR corepressor, here ectopically expressed in cancer cells by stable transfection of an expression plasmid (protein, listed as Homo sapiens)
chain: MSGEDEQQEQTIAEDLVVTKYKMGGDIANRVLRSLVEASSSGVSVLSLCEKGDAMIMEETGKIFKKEKEMKKGIAFPTSISVNNCVCHFSPLKSDQDYILKEGDLVKIDLGVHVDGFIANVAHTFVVDVAQGTQVTGRKADVIKAAHLCAEAALRLVKPGNQNTQVTEAWNKVAHSFNCTPIEGMLSHQLKQHVIDGEKTIIQNPTDQQKKDHEKAEFEVHEVYAVDVLVSSGEGKAKDAGQRTTIYKRDPSKQYGLKMKTSRAFFSEVERRFDAMPFTLRAFEDEKKARMGVVECAKHELLQPFNVLYEKEGEFVAQFKFTVLLMPNGPMRITSGPFEPDLYKSEMEVQDAELKALLQSSASRKTQKKKKKKASKTAENATSGETLEENEAGD
modifications: FLAG tag
As for B1, the “cells killed by 4 Gy gamma radiation” value in assay [1] stood at 100%. In assay [2], the ErbB2 protein level result is “significantly decreased” and the ErbB3 protein level result was “no change”.
